Substitutions are numbered along the chain they refer to.
T1: mouse GITR extracellular domain (mouse, UniProt O35714 20-153)
T1 construct: extracellular domain; also called murine GITR; rodent GITR
T1 sequence (looked up): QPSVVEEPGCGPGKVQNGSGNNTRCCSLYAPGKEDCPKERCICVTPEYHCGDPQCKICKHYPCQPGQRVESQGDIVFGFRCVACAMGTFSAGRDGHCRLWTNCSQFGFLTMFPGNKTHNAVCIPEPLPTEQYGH

T2: rat GITR extracellular domain (rat, UniProt F7FFS7 65-198)
T2 construct: also called rodent GITR
T2 sequence: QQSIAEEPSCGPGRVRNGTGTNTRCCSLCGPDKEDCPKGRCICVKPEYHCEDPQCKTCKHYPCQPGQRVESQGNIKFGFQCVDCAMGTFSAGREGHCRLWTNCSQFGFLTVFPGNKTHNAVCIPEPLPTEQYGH

T3: human GITR (hGITR), form not stated (human, UniProt Q9Y5U5 26-162, limits assumed)
T3 construct: the construct is not described
T3 sequence: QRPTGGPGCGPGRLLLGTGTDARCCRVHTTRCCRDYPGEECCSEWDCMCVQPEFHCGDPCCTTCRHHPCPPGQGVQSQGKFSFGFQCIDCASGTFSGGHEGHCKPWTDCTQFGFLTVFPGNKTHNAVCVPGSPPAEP

T4: DcR3 (human, UniProt O95407)
T4 sequence (receptor, looked up): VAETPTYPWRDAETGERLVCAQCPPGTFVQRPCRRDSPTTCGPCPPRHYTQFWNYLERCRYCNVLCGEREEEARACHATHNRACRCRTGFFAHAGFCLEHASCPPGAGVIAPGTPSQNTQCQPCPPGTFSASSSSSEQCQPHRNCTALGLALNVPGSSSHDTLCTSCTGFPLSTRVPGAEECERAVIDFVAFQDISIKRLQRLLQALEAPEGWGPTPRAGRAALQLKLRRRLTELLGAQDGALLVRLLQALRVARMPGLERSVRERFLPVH

T5: TNFR1 (human, UniProt P19438)
T5 sequence (receptor, looked up): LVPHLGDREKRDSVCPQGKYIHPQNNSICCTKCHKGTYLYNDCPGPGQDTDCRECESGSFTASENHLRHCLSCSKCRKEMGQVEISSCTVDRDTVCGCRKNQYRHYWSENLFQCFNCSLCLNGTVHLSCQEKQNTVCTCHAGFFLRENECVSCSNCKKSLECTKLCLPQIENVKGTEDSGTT

T6: BCMA (human, UniProt Q02223)
T6 sequence (receptor, looked up): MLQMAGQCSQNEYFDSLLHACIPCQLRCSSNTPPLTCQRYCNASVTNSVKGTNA

T7: DcR1 (human, UniProt O14798)
T7 sequence (receptor, looked up): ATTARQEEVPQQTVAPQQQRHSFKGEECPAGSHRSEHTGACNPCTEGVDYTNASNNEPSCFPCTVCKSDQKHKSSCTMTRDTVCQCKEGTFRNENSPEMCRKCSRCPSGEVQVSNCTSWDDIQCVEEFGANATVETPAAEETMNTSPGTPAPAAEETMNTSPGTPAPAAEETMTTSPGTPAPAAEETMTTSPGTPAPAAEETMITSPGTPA

T8: DR4 (human, UniProt O00220)
T8 sequence (receptor, looked up): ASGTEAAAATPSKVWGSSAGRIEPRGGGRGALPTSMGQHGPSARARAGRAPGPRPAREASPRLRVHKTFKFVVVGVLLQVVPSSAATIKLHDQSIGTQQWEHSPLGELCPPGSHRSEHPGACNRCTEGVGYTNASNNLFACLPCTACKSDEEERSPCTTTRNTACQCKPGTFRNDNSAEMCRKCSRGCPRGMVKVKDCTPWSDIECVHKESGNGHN

T9: DcR2 (human, UniProt Q9UBN6)
T9 sequence (receptor, looked up): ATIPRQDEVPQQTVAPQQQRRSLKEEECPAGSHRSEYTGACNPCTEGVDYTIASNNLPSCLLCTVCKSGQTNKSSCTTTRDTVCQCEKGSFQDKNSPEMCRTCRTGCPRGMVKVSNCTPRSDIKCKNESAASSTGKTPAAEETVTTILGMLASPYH

B1: MAB4 (IgG1 kappa) (antibody, V domains shown)
VH: EVQLVESGGGLVQSGGSLRLSCAASGFSLSSYGVDWVRQAPGKGLEWVGVIWGGGGTYYASSLMGRFTISRDNSKNTLYLQMNSLRAEDTAVYYCAKHAYGHDGGFAMDYWGQGTLVTVSS
VL: EIVMTQSPATLSVSPGERATLSCRASESVSSNVAWYQQRPGQAPRLLIYGASNRATGIPARFSGSGSGTDFTLTISRLEPEDFAVYYCGQSYSYPFTFGQGTKLEIKR
B2: MAB5 (IgG1 kappa) (antibody, V domains shown)
VH: B1 VH with V48L, A60T
VL: B1 VL
notes: also called MABS (misprint of MAB5)

What was measured:
[1] = target: T1, mouse GITR extracellular domain; assay: ELISA on coated GITR ECD
Method: (§1) The plate was blocked with a solution of 1% BSA in PBS for one hour at room temperature and then rinsed three times with PBST. The MAB was then diluted to 0.5 μg/mL or 1 μg/mL in PBS and 20 μL was added to each well. The plate was incubated for 1 hour at room temperature and then washed three times with PBST. […] The plate was incubated for 1 hour at room temperature, and then washed six times with PBST. 25 μL of SureBlue TMB (KPL 52-00-02) substrate was added to each well and the plate was incubated for about 10 min at room temperature.

[2] = target: T2, rat GITR extracellular domain; assay: ELISA on coated GITR ECD
Method: as §1

[3] = target: T3, human GITR (hGITR), form not stated; assay: Biacore (SPR), IgG
[4] = target: cyno GITR (cGITR), form not stated (cynomolgus monkey); assay: Biacore (SPR), IgG
DcR3 = target: T4, DcR3; assay: specificity ELISA, bacterial lysate on HisGrab nickel plate
Method: (§2) For the specificity ELISA, a crude cell lysate was made from bacteria expressing members of the TNFRSF family. To prevent nonspecific binding to the plate 50 μL of 5% BSA was added per mL of bacterial lysate. […] The plate was then rinsed three times with PBST, then MAB was diluted to 0.5 μg/mL in 10% FBS in PBS and 100 μL was added to each well. The plate was incubated for 1 hour at room temperature and then rinsed three times with PBST. Anti-human kappa antibody (Sigma #A7164) conjugated to HRP was diluted 1:5000 in 1:1 PBST: 10% FBS in PBS and 100 μL added to each well. The plate was incubated for 1 hour at room temperature, and then washed three times with PBST. 100 μL of SureBlue TMB substrate was added to each well and the plate was incubated for about 10 min at room temperature before stopping the reaction with 100 μL /well of 2N H₂SO₄.

TNFR1 = target: T5, TNFR1; assay: as above
Method: as §2

BCMA = target: T6, BCMA; assay: as above
Method: as §2

DcR1 = target: T7, DcR1; assay: as above
Method: as §2

DR4 = target: T8, DR4; assay: as above
Method: as §2

DcR2 = target: T9, DcR2; assay: as above
Method: as §2

CD40 = CD40 (human, UniProt P25942); assay: as above
Method: as §2

Chain of CD40 (P25942 21-193 limits assumed): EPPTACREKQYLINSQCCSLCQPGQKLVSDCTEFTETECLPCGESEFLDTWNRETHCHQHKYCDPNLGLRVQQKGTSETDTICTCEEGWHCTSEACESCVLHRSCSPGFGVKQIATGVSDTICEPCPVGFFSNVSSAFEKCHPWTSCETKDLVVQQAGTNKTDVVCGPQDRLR

| Kd [3] | Kd [4] | Binder | binding result [1] | binding result [2] | binding result (DcR3) | binding result (TNFR1) | binding result (BCMA) | binding result (DcR1) | binding result (DR4) | binding result (DcR2) | binding result (CD40) |
| --- | --- | --- | --- | --- | --- | --- | --- | --- | --- | --- | --- |
| 0.684 nM | 1.78 nM | B1 | no binding (tested: not on the sheet; paragraph 336: 0.5 or 1 µg/mL) | no binding (tested: not on the sheet; paragraph 336: 0.5 or 1 µg/mL) | no binding (tested: not on the sheet; paragraph 335: 0.5 µg/mL) | no binding (tested: not on the sheet; paragraph 335: 0.5 µg/mL) | no binding (tested: not on the sheet; paragraph 335: 0.5 µg/mL) | no binding (tested: not on the sheet; paragraph 335: 0.5 µg/mL) | no binding (tested: not on the sheet; paragraph 335: 0.5 µg/mL) | no binding (tested: not on the sheet; paragraph 335: 0.5 µg/mL) | no binding (tested: not on the sheet; paragraph 335: 0.5 µg/mL) |
| 0.973 nM | 1.87 nM | B2 | no binding (tested: not on the sheet; paragraph 336: 0.5 or 1 µg/mL) | no binding (tested: not on the sheet; paragraph 336: 0.5 or 1 µg/mL) | no binding (tested: not on the sheet; paragraph 335: 0.5 µg/mL) | no binding (tested: not on the sheet; paragraph 335: 0.5 µg/mL) | no binding (tested: not on the sheet; paragraph 335: 0.5 µg/mL) | no binding (tested: not on the sheet; paragraph 335: 0.5 µg/mL) | no binding (tested: not on the sheet; paragraph 335: 0.5 µg/mL) | no binding (tested: not on the sheet; paragraph 335: 0.5 µg/mL) | no binding (tested: not on the sheet; paragraph 335: 0.5 µg/mL) |
